Tests used:
[1] = target: Extracellular domain of CD98hc (CD98hc-ED), His-tagged (human) (UniProt P08195); experiment: MST; His-tagged CD98hc-ED (50 nM) labelled with RED-tris-NTA 2nd generation as target; Gal-8, Gal-8N or Gal-8C titrated 50 μM to 12.21 nM (1:1 dilution series); Monolith NT.115, room temperature, LED 60%, MST power medium; KD fit; three independent experiments
[2] = target: T1, Extracellular domain of CD98hc (CD98hc-ED), His-tagged (human, UniProt P08195 105-529, N-glycosylated (glycosylated CD98hc-ED)); experiment: as above; details: both partners purified
T1 construct: CD98hc, human (cDNA from HeLa cells), extracellular domain; the printed primers encode an added start Met followed by RAPRCR, and end with RFPYAA (the C-terminus) followed by six His codons and a stop; His6 and its C-terminal position are read from the reverse primer; the text says only 'with a His-tag'; No signal peptide is encoded by the primers. 'Free CD98hc-ED' is this protein after PNGase F …
T1 sequence (looked up): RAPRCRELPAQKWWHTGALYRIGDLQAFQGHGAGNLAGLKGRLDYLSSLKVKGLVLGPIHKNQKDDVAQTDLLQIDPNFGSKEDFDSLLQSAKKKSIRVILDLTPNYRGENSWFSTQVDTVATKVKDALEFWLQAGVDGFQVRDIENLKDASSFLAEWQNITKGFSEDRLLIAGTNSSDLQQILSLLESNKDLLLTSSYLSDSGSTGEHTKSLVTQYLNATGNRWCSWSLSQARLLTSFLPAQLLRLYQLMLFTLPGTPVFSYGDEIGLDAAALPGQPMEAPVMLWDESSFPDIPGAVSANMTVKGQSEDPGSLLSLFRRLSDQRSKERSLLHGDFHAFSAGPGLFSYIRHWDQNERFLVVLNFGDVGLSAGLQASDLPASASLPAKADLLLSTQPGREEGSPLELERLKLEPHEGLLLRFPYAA

Recombinant Gal-8 (His-Gal-8) (from UniProt O00214 1-317) (natural protein)
Kd [1]: 1510 nM

B1: Recombinant Gal-8N (His-Gal-8N) (domain or fragment, human, UniProt O00214 1-152, looked up)
chain: MMLSLNNLQNIIYNPVIPFVGTIPDQLDPGTLIVIRGHVPSDADRFQVDLQNGSSMKPRADVAFHFNPRFKRAGCIVCNTLINEKWGREEITYDTPFKREKSFEIVIMVLKDKFQVAVNGKHTLLYGHRIGPEKIDTLGIYGKVNIHSIGFS
notes: Galectin-8, human, N-terminal carbohydrate recognition domain (Gal-8N); also called N-terminal carbohydrate recognition domain of Gal-8; source: E. coli BL21 (DE3) pLysS, as previously described by Si et al. [9]
Kd [2]: 220 ± 30 nM

B2: Recombinant Gal-8C (His-Gal-8C) (domain or fragment, human, UniProt O00214 187-317, looked up)
chain: FAARLNTPMGPGRTVVVKGEVNANAKSFNVDLLAGKSKDIALHLNPRLNIKAFVRNSFLQESWGEEERNITSFPFSPGMYFEMIIYCDVREFKVAVNGVHSLEYKHRFKELSSIDTLEINGDIHLLEVRSW
notes: Galectin-8, human, C-terminal carbohydrate recognition domain (Gal-8C); also called C-terminal carbohydrate recognition domain of Gal-8; source: E. coli BL21 (DE3) pLysS, as previously described by Si et al. [9]
Kd [2]: 10700 ± 1690 nM

From article PMC12130729, “CD98hc, a novel of galectin-8 receptor, binds to galectin-8 in an N-glycosylation-dependent manner” (Acta Biochimica et Biophysica Sinica, 2025)
